This note sets out measurements from patent publication US20260356924 (published 2026).

One experiment concerns the target T1, Tau409-426 pS422 peptide (human).
T1 chain: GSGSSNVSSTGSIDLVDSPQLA
Kind of experiment: SPR.

The target of another experiment is wild type tau (human). Kind of experiment: ELISA. For orientation: In an ELISA, binding on a coated surface is turned into a signal by an enzyme label.
The next experiment concerns the target iPHF (human, UniProt P10636). In words: BLI.

What is called Kd is the constant that tells how readily two partners part at equilibrium. Read a high Kd as lower affinity.

Chain of wild type tau (human) (P10636 other isoform, or with tags, fused parts or gaps): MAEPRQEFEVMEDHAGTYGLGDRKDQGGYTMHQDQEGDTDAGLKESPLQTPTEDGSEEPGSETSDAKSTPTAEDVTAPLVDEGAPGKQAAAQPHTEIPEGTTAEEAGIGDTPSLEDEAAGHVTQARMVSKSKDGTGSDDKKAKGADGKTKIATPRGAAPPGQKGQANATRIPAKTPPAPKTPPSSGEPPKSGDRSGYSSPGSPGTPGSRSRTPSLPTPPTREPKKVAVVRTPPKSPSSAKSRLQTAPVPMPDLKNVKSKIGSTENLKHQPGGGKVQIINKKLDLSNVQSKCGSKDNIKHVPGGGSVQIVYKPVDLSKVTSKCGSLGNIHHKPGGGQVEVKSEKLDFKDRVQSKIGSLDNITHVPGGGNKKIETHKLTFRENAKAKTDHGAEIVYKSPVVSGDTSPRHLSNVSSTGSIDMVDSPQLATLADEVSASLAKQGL
Chain of iPHF (P10636 2-758): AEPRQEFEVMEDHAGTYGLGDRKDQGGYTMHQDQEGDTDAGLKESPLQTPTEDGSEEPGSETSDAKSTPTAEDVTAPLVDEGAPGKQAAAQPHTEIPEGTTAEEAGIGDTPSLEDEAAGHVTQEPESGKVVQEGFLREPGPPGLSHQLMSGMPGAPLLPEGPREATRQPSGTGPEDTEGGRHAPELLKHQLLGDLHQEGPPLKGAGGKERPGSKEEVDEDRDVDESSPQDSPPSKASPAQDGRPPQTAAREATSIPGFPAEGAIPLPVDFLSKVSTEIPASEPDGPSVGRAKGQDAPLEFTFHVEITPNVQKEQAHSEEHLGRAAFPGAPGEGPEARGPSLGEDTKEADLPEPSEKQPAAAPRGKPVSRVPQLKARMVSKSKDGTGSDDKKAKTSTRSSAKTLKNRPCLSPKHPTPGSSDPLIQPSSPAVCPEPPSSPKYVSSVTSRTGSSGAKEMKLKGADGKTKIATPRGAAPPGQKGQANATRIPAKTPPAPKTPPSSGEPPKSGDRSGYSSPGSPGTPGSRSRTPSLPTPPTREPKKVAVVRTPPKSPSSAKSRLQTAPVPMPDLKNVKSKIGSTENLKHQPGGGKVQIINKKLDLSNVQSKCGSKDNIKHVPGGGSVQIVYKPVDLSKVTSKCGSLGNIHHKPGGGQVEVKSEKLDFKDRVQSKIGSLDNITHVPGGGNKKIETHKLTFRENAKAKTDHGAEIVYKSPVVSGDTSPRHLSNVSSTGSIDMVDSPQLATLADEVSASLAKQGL

B1: Ab1 (antibody, V domains shown)
VH: QVQLVQSGAEVKKSGASVKVSCKASGFTFTRYWMHWVRQAPGQGLEWIGNINPNNGGTDFNEKFKNRVTLIRDTSTTTVFIQLTSLTSEDSAVYYCARGTGTGAMDYWGQGTLVTVSS
VL: DIVMTQSPLSLSVTPGQPASISCRSSQSLVHNNGITYLYWYLQKPGQSPQLLIYRVSNRFSGVPDRFSGSGSGTDFTLKISRVEAEDVGVYYCFQGTHVPRTFGQGTKVEIK
In the experiment with Tau409-426 pS422 peptide, B1 yielded a Kd of 0.0408 nM.

B2: Ab7 (antibody, V domains shown)
VH: QVQLVQSGAEVKKPGASVKVSCKASGFTFTRYWMHWVRERPGHGLEWIGNINPNNGGTDFNEKFKNRVTMTVHKSISTAYMELSSLRSDDSAVYYCARGTGTGAMDYWGQGTLVTVSS
VL: DVVMTQSPLSLPVTLGQPASISCRSSQSLVHNNGITYLYWYQQRPGQSPRLLIYRVSNRFSGVPDRFSGSGSGTDFTLKISRVEAEDVGVYYCFQGTHVPRTFGQGTKLEIK
modifications: non-phosphorylated recombinant tau
As to B2, the binding result with wild type tau is listed as “no binding”.

B3: Ab4 (antibody, V domains shown)
VH: QVQLVQSGAEVKKPGASVKVSCKASGFTFTRYWMHWVKERPGQGLEWMGNINPNNGGTDFNEKFKNRVTMTVHKSTSTVFIQLSSLRSEDTAVYYCARGTGTGAMDYWGQGTSVTVSS
VL: DIVMTQSPLSLSVTPGQPASISCRSSQSLVHNNGITYLYWYLQKPGQSPQLLIYRVSNRFSGVPDRFSGSGSGTDFTLKISRVEAEDVGVYYCFQGTHVPRTFGQGTKVEIK
modifications: non-phosphorylated recombinant tau
Take B3: the binding result with wild type tau is recorded as “no binding”.

B4: Ab6 (antibody, V domains shown)
VH: QVQLVESGAEVKKPGASVKVSCKASGFTFTRYWMHWVKERPGHGLEWMGNINPNNGGTDFNEKFKNRVTITVHKSASTAYMELSSLRSEDTAVYYCARGTGTGAMDYWGQGTTVTVSS
VL: DIVMTQSPLSLSVTPGQPASISCRSSQSLVHNNGITYLYWYLQKPGQSPQLLIYRVSNRFSGVPDRFSGSGSGTDFTLKISRVEAEDVGVYYCFQGTHVPRTFGQGTKVEIK
modifications: non-phosphorylated recombinant tau
As for B4, the binding result with wild type tau is “no binding”.

B5: Ab9 (antibody, V domains shown)
VH: EVQLVQSGAEVKKPGSSVKVSCKASGFTFTRYWMHWVKERPGHGLEWIGNINPNNGGTDFNEKFKNRVTMTVHKSITTAYMELSRLTSDDSAVYYCARGTGTGAMDYWGQGTLVSVSS
VL: DIVMTQSPLSLSVTPGQPASISCRSSQSLVHNNGITYLYWYLQKPGQSPQLLIYRVSNRFSGVPDRFSGSGSGTDFTLKISRVEAEDVGVYYCFQGTHVPRTFGQGTKVEIK
modifications: non-phosphorylated recombinant tau
Regarding B5, in the experiment with wild type tau, the binding result is given as “no binding”.

B6: Ab8 (antibody, V domains shown)
VH: QVQLVQSGAEVKKSGASVKVSCKASGFTFTRYWMHWVRQAPGQGLEWIGNINPNNGGTDFNEKFKNRVTLIRDTSTTTVFIQLTSLTSEDSAVYYCARGTGTGAMDYWGQGTLVTVSS
VL: DVVMTQSPLSLPVTLGQPASISCRSSQSLVHNNGITYLYWYQQRPGQSPRLLIYRVSNRFSGVPDRFSGSGSGTDFTLKISRVEAEDVGVYYCFQGTHVPRTFGQGTKLEIK
modifications: non-phosphorylated recombinant tau
As for B6, the binding result with wild type tau is “no binding”.

B7: Ab9 (antibody, V domains shown)
VH: EVQLVQSGAEVKKPGSSVKVSCKASGFTFTRYWMHWVKERPGHGLEWIGNINPNNGGTDFNEKFKNRVTMTVHKSITTAYMELSRLTSDDSAVYYCARGTGTGAMDYWGQGTLVSVSS
VL: DIVMTQSPLSLSVTPGQPASISCRSSQSLVHNNGITYLYWYLQKPGQSPQLLIYRVSNRFSGVPDRFSGSGSGTDFTLKISRVEAEDVGVYYCFQGTHVPRTFGQGTKVEIK
Consider B7, for which the affinity with Tau409-426 pS422 peptide, expressed as Kd, was 0.0763 nM.

B8: Ab8 (antibody, V domains shown)
VH: QVQLVQSGAEVKKSGASVKVSCKASGFTFTRYWMHWVRQAPGQGLEWIGNINPNNGGTDFNEKFKNRVTLIRDTSTTTVFIQLTSLTSEDSAVYYCARGTGTGAMDYWGQGTLVTVSS
VL: DVVMTQSPLSLPVTLGQPASISCRSSQSLVHNNGITYLYWYQQRPGQSPRLLIYRVSNRFSGVPDRFSGSGSGTDFTLKISRVEAEDVGVYYCFQGTHVPRTFGQGTKLEIK
Molecule B8 returned a Kd with Tau409-426 pS422 peptide of 0.0533 nM.

B9: Ab11 (antibody, V domains shown)
VH: QVQLVQSGAEVKKPGASVKVSCKASGFTFTRYWMHWVKERPGQGLEWMGNINPNNGGTDFNEKFKNRVTMTVHKSTSTVFIQLSSLRSEDTAVYYCARGTGTGAMDYWGQGTSVTVSS
VL: DVVMTQSPLSLPVTLGQPASISCRSSQSLVHNNGITYLYWYQQRPGQSPRLLIYRVSNRFSGVPDRFSGSGSGTDFTLKISRVEAEDVGVYYCFQGTHVPRTFGQGTKLEIK
In the experiment with Tau409-426 pS422 peptide, B9 displayed a Kd of 0.0403 nM.

B10: Ab3 (antibody, V domains shown)
VH: EVQLVQSGAEVKKPGSSVKVSCKASGFTFTRYWMHWVKERPGHGLEWIGNINPNNGGTDFNEKFKNRVTMTVHKSITTAYMELSRLTSDDSAVYYCARGTGTGAMDYWGQGTLVSVSS
VL: DVVMTQSPLSLPVTLGQPASISCRSSQSLVHNNGITYLYWYQQRPGQSPRLLIYRVSNRFSGVPDRFSGSGSGTDFTLKISRVEAEDVGVYYCFQGTHVPRTFGQGTKLEIK
Turning to B10, the Kd with Tau409-426 pS422 peptide amounted to 0.0457 nM.

B11: Ab7 (antibody, V domains shown)
VH: QVQLVQSGAEVKKPGASVKVSCKASGFTFTRYWMHWVRERPGHGLEWIGNINPNNGGTDFNEKFKNRVTMTVHKSISTAYMELSSLRSDDSAVYYCARGTGTGAMDYWGQGTLVTVSS
VL: DVVMTQSPLSLPVTLGQPASISCRSSQSLVHNNGITYLYWYQQRPGQSPRLLIYRVSNRFSGVPDRFSGSGSGTDFTLKISRVEAEDVGVYYCFQGTHVPRTFGQGTKLEIK
Regarding B11, the equilibrium dissociation constant (Kd) with Tau409-426 pS422 peptide stood at 0.0398 nM.

B12: Ab1 (antibody, V domains shown)
VH: QVQLVQSGAEVKKSGASVKVSCKASGFTFTRYWMHWVRQAPGQGLEWIGNINPNNGGTDFNEKFKNRVTLIRDTSTTTVFIQLTSLTSEDSAVYYCARGTGTGAMDYWGQGTLVTVSS
VL: DIVMTQSPLSLSVTPGQPASISCRSSQSLVHNNGITYLYWYLQKPGQSPQLLIYRVSNRFSGVPDRFSGSGSGTDFTLKISRVEAEDVGVYYCFQGTHVPRTFGQGTKVEIK
modifications: non-phosphorylated recombinant tau
For B12, the binding result with wild type tau was “no binding”.

B13: Ab6 (antibody, V domains shown)
VH: QVQLVESGAEVKKPGASVKVSCKASGFTFTRYWMHWVKERPGHGLEWMGNINPNNGGTDFNEKFKNRVTITVHKSASTAYMELSSLRSEDTAVYYCARGTGTGAMDYWGQGTTVTVSS
VL: DIVMTQSPLSLSVTPGQPASISCRSSQSLVHNNGITYLYWYLQKPGQSPQLLIYRVSNRFSGVPDRFSGSGSGTDFTLKISRVEAEDVGVYYCFQGTHVPRTFGQGTKVEIK
As to B13, in the experiment with Tau409-426 pS422 peptide, binding was put at a Kd of 0.0398 nM.

B14: Ab4 (antibody, V domains shown)
VH: QVQLVQSGAEVKKPGASVKVSCKASGFTFTRYWMHWVKERPGQGLEWMGNINPNNGGTDFNEKFKNRVTMTVHKSTSTVFIQLSSLRSEDTAVYYCARGTGTGAMDYWGQGTSVTVSS
VL: DIVMTQSPLSLSVTPGQPASISCRSSQSLVHNNGITYLYWYLQKPGQSPQLLIYRVSNRFSGVPDRFSGSGSGTDFTLKISRVEAEDVGVYYCFQGTHVPRTFGQGTKVEIK
Turning to B14, binding with Tau409-426 pS422 peptide was characterised by a dissociation constant (Kd) of 0.0361 nM.

B15: Ab2 (antibody, V domains shown)
VH: QVQLVESGAEVKKPGASVKVSCKASGFTFTRYWMHWVKERPGHGLEWMGNINPNNGGTDFNEKFKNRVTITVHKSASTAYMELSSLRSEDTAVYYCARGTGTGAMDYWGQGTTVTVSS
VL: DVVMTQSPLSLPVTLGQPASISCRSSQSLVHNNGITYLYWYQQRPGQSPRLLIYRVSNRFSGVPDRFSGSGSGTDFTLKISRVEAEDVGVYYCFQGTHVPRTFGQGTKLEIK
modifications: non-phosphorylated recombinant tau
For the molecule B15, in the experiment with wild type tau, the binding result is recorded as “no binding”.

B16: Ab2 (antibody, V domains shown)
VH: QVQLVESGAEVKKPGASVKVSCKASGFTFTRYWMHWVKERPGHGLEWMGNINPNNGGTDFNEKFKNRVTITVHKSASTAYMELSSLRSEDTAVYYCARGTGTGAMDYWGQGTTVTVSS
VL: DVVMTQSPLSLPVTLGQPASISCRSSQSLVHNNGITYLYWYQQRPGQSPRLLIYRVSNRFSGVPDRFSGSGSGTDFTLKISRVEAEDVGVYYCFQGTHVPRTFGQGTKLEIK
For B16, the Kd with Tau409-426 pS422 peptide amounted to 0.0386 nM.

B17: Ab5 (antibody, V domains shown)
VH: QVQLVQSGAEVKKPGASVKVSCKASGFTFTRYWMHWVKERPGQGLEWMGNINPNNGGTDFNEKFKNRVTMTVHKSTSTVFIQLSSLRSEDTAVYYCARGTGTGAMDYWGQGTSVTVSS
VL: DIVMTQTPLSSPVTLGQPASISCRSSQSLVHNNGITYLYWYQQRPGQPPRLLIYRVSNRFSGVPDRFSGSGAGTDFTLKINRVEAEDVGVYFCFQGTHVPRTFGQGTKLEIK
In the case of B17, binding with Tau409-426 pS422 peptide was characterised by a dissociation constant (Kd) of 0.0294 nM.

B18: Ab5 (antibody, V domains shown)
VH: QVQLVQSGAEVKKPGASVKVSCKASGFTFTRYWMHWVKERPGQGLEWMGNINPNNGGTDFNEKFKNRVTMTVHKSTSTVFIQLSSLRSEDTAVYYCARGTGTGAMDYWGQGTSVTVSS
VL: DIVMTQTPLSSPVTLGQPASISCRSSQSLVHNNGITYLYWYQQRPGQPPRLLIYRVSNRFSGVPDRFSGSGAGTDFTLKINRVEAEDVGVYFCFQGTHVPRTFGQGTKLEIK
modifications: non-phosphorylated recombinant tau
With B18, in the experiment with wild type tau, the binding result is listed as “no binding”.

B19: Ab10 (antibody, V domains shown)
VH: EVQLVQSGAEVKKPGSSVKVSCKASGFTFTRYWMHWVKERPGHGLEWIGNINPNNGGTDFNEKFKNRVTMTVHKSITTAYMELSRLTSDDSAVYYCARGTGTGAMDYWGQGTLVSVSS
VL: DIVMTQTPLSSPVTLGQPASISCRSSQSLVHNNGITYLYWYQQRPGQPPRLLIYRVSNRFSGVPDRFSGSGAGTDFTLKINRVEAEDVGVYFCFQGTHVPRTFGQGTKLEIK
Turning to B19, the Kd with Tau409-426 pS422 peptide was 0.0436 nM.

B20: Ab10 (antibody, V domains shown)
VH: EVQLVQSGAEVKKPGSSVKVSCKASGFTFTRYWMHWVKERPGHGLEWIGNINPNNGGTDFNEKFKNRVTMTVHKSITTAYMELSRLTSDDSAVYYCARGTGTGAMDYWGQGTLVSVSS
VL: DIVMTQTPLSSPVTLGQPASISCRSSQSLVHNNGITYLYWYQQRPGQPPRLLIYRVSNRFSGVPDRFSGSGAGTDFTLKINRVEAEDVGVYFCFQGTHVPRTFGQGTKLEIK
modifications: non-phosphorylated recombinant tau
With B20, in the experiment with wild type tau, the binding result is “no binding”.

B21: V0004 (antibody, V domains shown)
VH: QVQLQQPGAELVKPGASVKLSCKASDYTFTNYWMHWVKQRPGRGLEWIGRIDPNSGGTRYNEKFKNKATLTVDKPSSTAYMHLSSLTSEDSAVYYCAGDFDVWGTGTTVTVSS
VL: DIQMTQSPASLSASVGETVTITCRASGNIHNYLAWYQQRQGKSPQLLVYNAKTLPDGVPSRFSGSGSGTQYSLKINSLQPEDFGSYCCQHFWSTPLTFGAGTKLELK
modifications: immunopurified paired helical filament tau, hyperphosphorylated
In turn, B21 came in with a Kd in the experiment with iPHF of 20 nM.
